Reference: US20200024320A1 (published 2020)
Where no end group is shown, it is not given here.

T1: MBP-RAMP2 ECD [L106R]-(GS)5-CLR ECD-H6 fusion protein (human, UniProt O60895 43-143; Q16602 29-144)
T1 chain: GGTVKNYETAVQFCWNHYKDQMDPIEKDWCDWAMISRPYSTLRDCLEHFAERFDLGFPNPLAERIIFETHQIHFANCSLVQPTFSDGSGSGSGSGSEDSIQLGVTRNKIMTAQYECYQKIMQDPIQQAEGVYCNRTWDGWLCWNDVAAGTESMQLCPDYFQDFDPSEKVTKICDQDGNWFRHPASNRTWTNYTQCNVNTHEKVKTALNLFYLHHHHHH


What was measured:
[1] = target: T1, MBP-RAMP2 ECD [L106R]-(GS)5-CLR ECD-H6 …; experiment: FP competition, FITC-AM W/W probe, RAMP2-CLR ECD
[2] = target: T1, MBP-RAMP2 ECD [L106R]-(GS)5-CLR ECD-H6 …; experiment: AlphaLISA/AlphaScreen competition, RAMP2-CLR ECD
[3] = target: T1, MBP-RAMP2 ECD [L106R]-(GS)5-CLR ECD-H6 …; experiment: FP competition; KI at RAMP1-CLR ECD over KI at RAMP2-CLR ECD
[4] = target: T1, MBP-RAMP2 ECD [L106R]-(GS)5-CLR ECD-H6 …; experiment: AlphaLISA competition, Biotin-AM probe

Ki [1] | pKI [1] | IC50 [2] | Receptor Selectivity (fold) [3] | fold increase in affinity (against AM(37-52)NH2) [4] | Binder
16600 nM | 4.78 |  |  |  | DKDNVAPRWWISPWGF-NH2 [AM(37-52)NH2 [S45W, K46W, Q50W, Y52F]]
81.3 nM | 7.09 |  |  |  | DKDNVAPRWKISPWGY-NH2 (also called S45W/Q50W double mutant) [AM(37-52)NH2 [S45W, Q50W]]
4070 nM | 5.39 |  |  |  | DKDNVAPRWLISPWGF-NH2 [AM(37-52)NH2 [S45W, K46L, Q50W, Y52F]]
1570 nM | 5.8 |  |  |  | DKDNVAPRTLISPWGY-NH2 [AM(37-52)NH2[S45T, K46L, Q50W]]
7760 nM | 5.11 |  |  |  | DKDNVAPRWMISPWGF-NH2 [AM(37-52)NH2 [S45W, K46M, Q50W, Y52F]]
12500 nM | 4.9 |  |  |  | DKDNVAPRTWISPWGY-NH2 [AM(37-52)NH2[S45T, K46W, Q50W]]
2140 nM | 5.67 |  | 5 fold |  | DKDNVAPRSKISPFGY-NH2 [AM(37-52)NH2 [Q50F]]
316 nM | 6.5 |  |  | ~100 fold | DKDNVAPRSKISPWGY-NH2 [AM(37-52)NH2 [Q50W]]
1250 nM | 5.9 |  |  |  | DKDNVAPRWLIGPWGF-NH2 [AM(37-52)NH2 [S45W, K46L, S48G, Q50W, Y52F]]
2750 nM | 5.56 |  |  |  | FVPTDTGPWSF-NH2 [CGRP(27-37)NH2 [N31D, V32T, S34P, K35W, A36S]]

More lines, now with the values behind:

Binder | Ki [1] | pKI [1] | IC50 [2] | Receptor Selectivity (fold) [3] | fold increase in affinity (against AM(37-52)NH2) [4]
DKDNVAPRSLISPWGY-NH2 [AM(37-52)NH2 [K46L, Q50W]] | 1660 nM | 5.78 |  |  | 
DKFNVAPRSLISPWGF-NH2 [AM(37-52)NH2 [D39F, K46L, Q50W, Y52F]] | 30300 nM | 4.55 |  |  | 
DKDNVAPRSLISPWGF-NH2 [AM(37-52)NH2 [K46L, Q50W, Y52F]] | 89100 nM | 4.05 |  |  | 
DKFNVAPRSLISPWGY-NH2 [AM(37-52)NH2 [D39F, K46L, Q50W]] | 1830 nM | 5.74 |  |  | 
DKDNVAPRSKISPQGY-NH2 (also called WT (AM(37-52)NH2 scaffold)) [AM(37-52)NH2] | 20400 nM | 4.69 | 5 to 15 µM |  | 
DKKNVAPRSKISPQGY-NH2 [AM(37-52)NH2 [D39K]] | 6100 nM | 5.22 |  |  | 
FVPTDVGPWSF-NH2 [CGRP(27-37)NH2 [N31D, S34P, K35W, A36S]] | 2450 nM | 5.61 |  |  | 
FVPTDTGPWGY-NH2 [CGRP(27-37)NH2 [N31D, V32T, S34P, K35W, A36G, F37Y]] | 14500 nM | 4.84 |  |  | 
FVPTDVGPWSY-NH2 [CGRP(27-37)NH2 [N31D, S34P, K35W, A36S, F37Y]] | 324 nM | 6.49 |  |  | 
